Drawing on patent US20230265146A1 (AMUNIX PHARMACEUTICALS, published 2023), this text covers EC50 for 1 molecule.

For orientation: EC50 means the concentration at which the effect is half-maximal.

The assay deals with T1, human IL-12 receptor on HEK-Blue IL-12 reporter cells (human, UniProt P42701 24-662; Q99665 24-862).
T1 construct: whole, on cells; also called 293 HEK-IL-12 reporter cells; HEK-Blue IL12 reporter cells (InvivoGen)
The assay can be described thus: Flow cytometry (MFI AF488) on HEK-Blue IL-12 reporter cells; bound protein detected with a fluorescent anti-His-tag antibody. On the procedure:
HEK-Blue IL-12 reporter cells (Invivogen, as described in Example 8) that express the human IL-12 receptor were used to assess binding of the IL12 constructs to the IL-12 receptor. Increasing concentrations of an exemplified “XTENylated IL12” construct (SEQ ID NO: 2) (1 μM) containing a recombinant single chain mouse IL12 with an N-terminal his-tag plus an XTEN sequence followed by a release segment sequence were incubated with 50,000 293HEK-IL-12 reporter cells that were subsequently washed and surface bound IL12 monitored by flow cytometry using a fluorescent-labelled anti-His-tag antibody for detection. Binding by the XTENylated IL12 was compared to binding of the reference IL-12 construct (SEQ ID NO:4) that contained a recombinant single chain mouse IL-12 and a C-terminal His-tag. Due to release of the His-tag from the XTENylated IL-12 following its activation with human matrix metallopeptidase 9 (MMP9), we were unable to assess IL-12 binding of its activated form in this assay. The XTEN fragment released by MMP9 cleavage retained the His-tag and was used as a specificity control for binding. As shown in FIGS. 9A-9B, the XTEN, when present in the fusion protein masked the cytokine binding to its corresponding IL12 receptor.
Background: A flow cytometer gives signals particle by particle.

T1 sequence (Q99665 24-862, chain 2 of 2, other chains not shown): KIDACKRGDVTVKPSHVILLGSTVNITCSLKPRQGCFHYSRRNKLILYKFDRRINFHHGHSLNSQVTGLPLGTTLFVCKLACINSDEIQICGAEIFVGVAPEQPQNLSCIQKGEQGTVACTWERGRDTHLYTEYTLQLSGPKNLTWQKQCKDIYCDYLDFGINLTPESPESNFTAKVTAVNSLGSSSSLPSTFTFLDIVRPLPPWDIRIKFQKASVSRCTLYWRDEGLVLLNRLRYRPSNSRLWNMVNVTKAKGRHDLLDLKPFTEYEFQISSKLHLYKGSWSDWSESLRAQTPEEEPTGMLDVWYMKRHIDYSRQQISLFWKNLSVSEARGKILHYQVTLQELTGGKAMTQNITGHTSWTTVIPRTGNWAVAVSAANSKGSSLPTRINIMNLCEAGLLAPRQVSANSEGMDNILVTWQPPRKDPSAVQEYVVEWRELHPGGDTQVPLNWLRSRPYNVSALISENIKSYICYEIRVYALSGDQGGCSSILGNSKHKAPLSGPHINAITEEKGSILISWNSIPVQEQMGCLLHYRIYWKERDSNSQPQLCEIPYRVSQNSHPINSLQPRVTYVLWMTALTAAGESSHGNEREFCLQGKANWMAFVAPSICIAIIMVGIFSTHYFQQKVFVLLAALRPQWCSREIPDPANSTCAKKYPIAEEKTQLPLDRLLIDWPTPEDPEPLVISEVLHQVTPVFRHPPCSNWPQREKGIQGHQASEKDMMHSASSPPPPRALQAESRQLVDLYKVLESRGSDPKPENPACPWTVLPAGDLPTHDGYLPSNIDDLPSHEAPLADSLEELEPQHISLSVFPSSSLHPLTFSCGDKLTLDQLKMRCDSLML

B1: Reference IL12 construct (SEQ ID NO: 4) (ligand)
chain: MWELEKDVYVVEVDWTPDAPGETVNLTCDTPEEDDITWTSDQRHGVIGSGKTLTITVKEFLDAGQYTCHKGGETLSHSHLLLHKKENGIWSTEILKNFKNKTFLKCEAPNYSGRFTCSWLVQRNMDLKFNIKSSSSSPDSRAVTCGMASLSAEKVTLDQRDYEKYSVSCQEDVTCPTAEETLPIELALEARQQNKYENYSTSFFIRDIIKPDPPKNLQMKPLKNSQVEVSWEYPDSWSTPHSYFSLKFFVRIQRKKEKMKETEEGCNQKGAFLVEKTSTEVQCKGGNVCVQAQDRYYNSSCSKWACVPCRVRSGGGGSGGGGSGGGGSRVIPVSGPARCLSQSRNLLKTTDDMVKTAREKLKHYSCTAEDIDHEDITRDQTSTLKTCLPLELHKNESCLATRETSSTTRGSCLPPQKTSLMMTLCLGSIYEDLKMYQTEFQAINAALQNHNHQQIILDKGMLVAIDELMQSLNHNGETLRQKPPVGEADPYRVKMKLCILLHAFSTRVVTINRVMGYLSSAHHHHHHHH
Molecule B1 registered an EC50 of 4.5 nM.
